Values belong to the binder of their own block, whether it stands above or below them.
Legend:
[1] = molecular target: ACVR2A GBD-Fc (human) (UniProt P27037); assay: SPR; BIAcore 3000; receptor-Fc (about 500 RU BMPR2-Fc WT or variants, 150 RU ACVR2A-Fc) captured on immobilised anti-human IgG (Fc), CM5 chip; single injections of 80 nM GF, single curve fits, averages of two independent injections; 25 °C; HBS/EPS (0.01 M Hepes, 0.5 M NaCl, 3 mM EDTA, 0.005% Tween 20, pH 7.4) with 0.1% bovine serum albumin; 50 μl/min; 1:1 binding model, KD = kd/ka
[2] = molecular target: BMPR2 GBD-Fc (WT) (human) (UniProt Q13873); assay: as above
[3] = molecular target: ACVR2A GBD-Fc (human) (UniProt P27037); assay: SPR; BIAcore 3000; receptor-Fc captured on immobilised anti-human IgG (Fc), CM5 chip; titration, global fit of 2.5, 5.0, 10.0, 20.0 and 40.0 nM GF injections; 25 °C; HBS/EPS (0.01 M Hepes, 0.5 M NaCl, 3 mM EDTA, 0.005% Tween 20, pH 7.4) with 0.1% bovine serum albumin; 50 μl/min; 1:1 binding model, KD = kd/ka
[4] = molecular target: BMPR2 GBD-Fc (WT) (human) (UniProt Q13873); assay: as above
[5] = molecular target: BMPR2 GBD-Fc (WT) (human) (UniProt Q13873); assay: as above; remark: listed apart in the source
[6] = molecular target: BMPR2-Fc variant G47D (human) (UniProt Q13873); assay: as above
[7] = molecular target: BMPR2-Fc variant Q42R (human) (UniProt Q13873); assay: as above
[8] = molecular target: BMPR2-Fc variant Q92H (human) (UniProt Q13873); assay: as above
[9] = molecular target: BMPR2-Fc variant S107P (human) (UniProt Q13873); assay: as above
[10] = molecular target: BMPR2 GBD-Fc (WT) (human) (UniProt Q13873); assay: SPR; BIAcore 3000; receptor-Fc (about 500 RU BMPR2-Fc WT or variants, 150 RU ACVR2A-Fc) captured on immobilised anti-human IgG (Fc), CM5 chip; single injections of 80 nM GF, single curve fits, averages of two independent injections; 25 °C; HBS/EPS (0.01 M Hepes, 0.5 M NaCl, 3 mM EDTA, 0.005% Tween 20, pH 7.4) with 0.1% bovine serum albumin; 50 μl/min; 1:1 binding model, KD = kd/ka; remark: listed apart in the source
[11] = molecular target: BMPR2-Fc variant G47D (human) (UniProt Q13873); assay: as above
[12] = molecular target: BMPR2-Fc variant Q42R (human) (UniProt Q13873); assay: as above
[13] = molecular target: BMPR2-Fc variant Q92H (human) (UniProt Q13873); assay: as above
[14] = molecular target: BMPR2-Fc variant S107P (human) (UniProt Q13873); assay: as above

Chain of BMPR2 GBD-Fc (WT) (human) (Q13873 whole entry): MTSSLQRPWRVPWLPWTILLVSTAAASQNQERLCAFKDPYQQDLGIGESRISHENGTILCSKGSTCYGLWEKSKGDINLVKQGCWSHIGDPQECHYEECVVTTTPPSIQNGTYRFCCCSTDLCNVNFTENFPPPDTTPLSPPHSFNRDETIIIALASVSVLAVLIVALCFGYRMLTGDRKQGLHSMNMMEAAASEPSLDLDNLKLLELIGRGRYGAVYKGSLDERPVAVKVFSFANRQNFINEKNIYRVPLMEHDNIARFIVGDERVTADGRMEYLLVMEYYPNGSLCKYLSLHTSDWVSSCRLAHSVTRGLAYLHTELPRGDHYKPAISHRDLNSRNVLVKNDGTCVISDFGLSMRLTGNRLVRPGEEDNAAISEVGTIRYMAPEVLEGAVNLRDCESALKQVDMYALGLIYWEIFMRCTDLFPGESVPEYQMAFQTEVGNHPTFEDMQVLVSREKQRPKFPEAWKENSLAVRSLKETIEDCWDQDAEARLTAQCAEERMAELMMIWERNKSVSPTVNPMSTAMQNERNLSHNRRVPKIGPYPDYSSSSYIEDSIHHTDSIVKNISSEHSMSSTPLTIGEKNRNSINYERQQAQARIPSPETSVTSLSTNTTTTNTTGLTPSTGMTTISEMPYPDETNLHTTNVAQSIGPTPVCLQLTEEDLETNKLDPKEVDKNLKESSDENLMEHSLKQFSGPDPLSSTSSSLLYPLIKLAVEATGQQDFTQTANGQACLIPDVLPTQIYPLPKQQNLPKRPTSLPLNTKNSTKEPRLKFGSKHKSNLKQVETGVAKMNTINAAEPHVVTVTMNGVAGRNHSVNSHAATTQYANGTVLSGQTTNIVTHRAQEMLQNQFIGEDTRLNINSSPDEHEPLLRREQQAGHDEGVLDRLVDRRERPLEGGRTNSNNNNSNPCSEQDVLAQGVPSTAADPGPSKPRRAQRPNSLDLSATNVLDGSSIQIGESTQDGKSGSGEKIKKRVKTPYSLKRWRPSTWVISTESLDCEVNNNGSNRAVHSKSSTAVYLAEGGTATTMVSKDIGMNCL
Chain of ACVR2A GBD-Fc (human) (P27037 whole entry): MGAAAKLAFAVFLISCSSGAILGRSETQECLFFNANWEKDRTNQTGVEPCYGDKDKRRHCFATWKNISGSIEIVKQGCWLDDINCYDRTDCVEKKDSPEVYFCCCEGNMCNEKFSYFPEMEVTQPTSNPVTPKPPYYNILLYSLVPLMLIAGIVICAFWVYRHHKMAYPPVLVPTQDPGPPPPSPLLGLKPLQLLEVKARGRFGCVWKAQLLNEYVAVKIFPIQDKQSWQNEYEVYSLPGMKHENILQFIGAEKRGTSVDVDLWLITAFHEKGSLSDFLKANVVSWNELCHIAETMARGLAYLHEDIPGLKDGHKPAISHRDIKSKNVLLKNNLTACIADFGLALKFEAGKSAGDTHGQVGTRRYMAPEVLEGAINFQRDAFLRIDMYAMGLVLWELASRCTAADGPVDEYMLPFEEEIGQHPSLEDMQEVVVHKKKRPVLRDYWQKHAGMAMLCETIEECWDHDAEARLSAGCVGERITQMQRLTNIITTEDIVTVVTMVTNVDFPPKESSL

B1: GDF11 (ligand)
chain: NLGLDCDEHSSESRCCRYPLTVDFEAFGWDWIIAPKRYKANYCSGQCEYMFMQKYPHTHLVQQANPRGSAGPCCTPTKMSPINMLYFNDKQQIIYGKIPGMVVDRCGCS
- Kd [1]: 0.052 nM
- koff [1]: 0.00018 s⁻¹
- kon [1]: 3.5e+06 M⁻¹ s⁻¹

B4: Nodal (ligand)
chain: HHLPDRSQLCRKVKFQVDFNLIGWGSWIIYPKQYNAYRCEGECPNPVGEEFHPTNHAYIQSLLKRYQPHRVPSTCCAPVKTKPLSMLYVDNGRVLLDHHKDMIVEECGCL
- Kd [2]: 3.2 nM
- koff [2]: 0.00014 s⁻¹
- kon [2]: 42000 M⁻¹ s⁻¹

B5: BMP10 (ligand)
chain: NAKGNYCKRTPLYIDFKEIGWDSWIIAPPGYEAYECRGVCNYPLAEHLTPTKHAIIQALVHLKNSQKASKACCVPTKLEPISILYLDKGVVTYKFKYEGMAVSECGCR
- Kd [4]: 2.4 nM
- koff [4]: 5.5e-05 s⁻¹
- kon [4]: 23000 M⁻¹ s⁻¹
- Kd [6]: 0.02 nM
- koff [6]: 2.8e-06 s⁻¹
- kon [6]: 140000 M⁻¹ s⁻¹
- Kd [7]: 2.3 nM
- koff [7]: 7.9e-05 s⁻¹
- kon [7]: 34000 M⁻¹ s⁻¹
- Kd [8]: 0.32 nM
- koff [8]: 7.8e-05 s⁻¹
- kon [8]: 250000 M⁻¹ s⁻¹
- Kd [9]: 1 nM
- koff [9]: 1.9e-05 s⁻¹
- kon [9]: 19000 M⁻¹ s⁻¹
- Kd [1]: 1 nM
- koff [1]: 0.00035 s⁻¹
- kon [1]: 360000 M⁻¹ s⁻¹
- Kd [2]: 2.1 nM
- koff [2]: 0.00019 s⁻¹
- kon [2]: 91000 M⁻¹ s⁻¹
- Kd [10]: 1.8 nM
- koff [10]: 0.00017 s⁻¹
- kon [10]: 94000 M⁻¹ s⁻¹
- Kd [11]: 0.58 nM
- koff [11]: 3.8e-05 s⁻¹
- kon [11]: 65000 M⁻¹ s⁻¹
- Kd [12]: 2.5 nM
- koff [12]: 0.00021 s⁻¹
- kon [12]: 83000 M⁻¹ s⁻¹
- Kd [13]: 1.8 nM
- koff [13]: 0.00015 s⁻¹
- kon [13]: 90000 M⁻¹ s⁻¹
- Kd [14]: 0.86 nM
- koff [14]: 0.00018 s⁻¹
- kon [14]: 210000 M⁻¹ s⁻¹

Further binders by falling Kd [2], results first:

- Kd [2]: 6.3 nM
- koff [2]: 0.0021 s⁻¹
- kon [2]: 330000 M⁻¹ s⁻¹
B2: BMP15 (ligand)
chain: QADGISAEVTASSSKHSGPENNQCSLHPFQISFRQLGWDHWIIAPPFYTPNYCKGTCLRVLRDGLNSPNHAIIQNLINQLVDQSVPRPSCVPYKYVPISVLMIEANGSILYKEYEGMIAESCTCR

- Kd [3]: 0.0016 nM
- koff [3]: 9.7e-06 s⁻¹
- kon [3]: 6.1e+06 M⁻¹ s⁻¹
- Kd [4]: 0.71 nM
- koff [4]: 0.00062 s⁻¹
- kon [4]: 880000 M⁻¹ s⁻¹
- koff [5]: 0.00082 s⁻¹
- Kd [6]: 1.3 nM
- koff [6]: 0.00058 s⁻¹
- kon [6]: 430000 M⁻¹ s⁻¹
- Kd [7]: 1.4 nM
- koff [7]: 0.00082 s⁻¹
- kon [7]: 580000 M⁻¹ s⁻¹
- Kd [8]: 1.1 nM
- koff [8]: 0.00044 s⁻¹
- kon [8]: 400000 M⁻¹ s⁻¹
- Kd [9]: 0.28 nM
- koff [9]: 0.00019 s⁻¹
- kon [9]: 670000 M⁻¹ s⁻¹
- Kd [1]: 0.053 nM
- koff [1]: 7.4e-05 s⁻¹
- kon [1]: 1.4e+06 M⁻¹ s⁻¹
- Kd [2]: 2.3 nM
- koff [2]: 0.0018 s⁻¹
- kon [2]: 790000 M⁻¹ s⁻¹
- Kd [10]: 4.1 nM
- kon [10]: 470000 M⁻¹ s⁻¹
- Kd [11]: 2.9 nM
- koff [11]: 0.0013 s⁻¹
- kon [11]: 440000 M⁻¹ s⁻¹
- Kd [12]: 5 nM
- koff [12]: 0.0021 s⁻¹
- kon [12]: 420000 M⁻¹ s⁻¹
- Kd [13]: 1.8 nM
- koff [13]: 0.00072 s⁻¹
- kon [13]: 400000 M⁻¹ s⁻¹
- Kd [14]: 2.6 nM
- koff [14]: 0.0015 s⁻¹
- kon [14]: 610000 M⁻¹ s⁻¹
B3: activin B (ligand)
chain: GLECDGRTNLCCRQQFFIDFRLIGWNDWIIAPTGYYGNYCEGSCPAYLAGVPGSASSFHTAVVNQYRMRGLNPGTVNSCCIPTKLSTMSMLYFDDEYNIVKRDVPNMIVEECGCA
